Like-named read-outs stand apart in the source and are kept apart here.

Test [1] has as its target T1, H1N1 HA (A/California/04/2009) (Influenza A virus A/California/04/2009 …, UniProt C3W5S1, strain).
T1 construct: source: bought: Sino Biological
The test is described as follows: ELISA.

Test [2] concerns the target T2, H2N2 HA (A/Japan/305/1957) (Influenza A virus A/Japan/305/1957 …, UniProt P03451, strain).
T2 construct: source: bought: Sino Biological
The test is described as follows: ELISA. The conditions noted are these: one partner purified. A general note: ELISA stands for enzyme-linked immunosorbent assay.

Test [3] addresses T3, H3N2 HA (A/Perth/16/2009) (Influenza A virus A/Perth/16/2009 (H3N2), UniProt C6KNH7, strain).
T3 construct: also called H3N2 hemagglutinin; source: bought: Sino Biological
As to the kind of experiment: ELISA. As to conditions: one partner purified.

In test [4] the target is T4, H5N1 HA (A/Vietnam/1194/2004) (Influenza A virus A/Vietnam/1194/2004 …, UniProt A5A5M5, strain).
T4 construct: also called H5N1 hemagglutinin; source: bought: Sino Biological
The test is described as follows: ELISA. The conditions noted are these: one partner purified.

Test [5] deals with T4, H5N1 HA (A/Vietnam/1194/2004).

B1: H5-Ab6 (antibody, V domains shown)
VH: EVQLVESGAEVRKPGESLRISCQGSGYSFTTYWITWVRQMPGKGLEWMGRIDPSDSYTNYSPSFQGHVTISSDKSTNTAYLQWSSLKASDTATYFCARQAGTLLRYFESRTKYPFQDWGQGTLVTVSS
VL: EIVLTQSPGTLSLSPGERATLSCRASQSVSGGYLAWYQQRPGQAPRLLISGASTRATGIPDRFSGSGSGTDFTLTISGLEPEDFAVYYCQQYGDSPAYTFGQGTKVEIK
Turning to B1, the binding result in test [1] (one partner purified), in test [2], in test [3] and in test [4] was “binds” throughout.

B2: H5-Ab4 (antibody, V domains shown)
VH: EVQLVESGGGAVQPGRSLRLSCAVSGFTFSSYGMNWVRQAPGKGLEWVAVISYDGSNTYYADSVKGRFTISRDDSKNTLFLQMNSLRADDTAVYYCAKDFQLRLLRYFDWLSSPFDHWGQGTLVTVSS
VL: DIQLTQSPGTLSLSPGERATLSCRASQSIRSNFLAWYQQTPGQGPRLLIYGASSRATGIPDRFSGSGSGTDFTLTISGLEPEDFAVYYCQQYASSPQTFGQGTKVEIK
B2: the binding result in test [1] is on record as “binds”.

B3: H5-Ab3 (antibody, V domains shown)
VH: EVQLVESGGGLVKPGGSLRLSCAASGFTFSTYSMNWVRHAPGKGLEWVSSISSGSNYIYYADSVKGRFTISRDNAKNSLYLQMNNLRAEDTAVYHCARDRGESSYYWFDPWGQGTLVTVSS
VL: QSALTQPASVSGSPGQSITISCTGTSSDVGAYDYVSWYRQHPGEAPKLLIYDVARRPSGVSFRFSGSKSGNAASLTISGLQAEDEADYFCSSYAGTTIWVFGGGTKLTVL
Turning to B3, the binding result in test [5] was “binds”.

The record behind these values is publication PMC5551578 (The Journal of Experimental Medicine, 2017).
